The experiment has as its target eEF1A1 (eukaryotic elongation factor 1 subunit A1), MYC/DDK-tagged (human) (UniProt P68104). The experiment in a line: BLI; biotinylated eEF1 subunit (eEF1A1, eEF1B, eEF1D or eEF1G) immobilised on streptavidin biosensor; RT subunits, RT heterodimer, Gag or RTp66 mutants as analytes at 90, 30 and 10 nM (mutants at 90 nM); kinetic buffer 1 mM phosphate, 15 mM NaCl, 0.002% Tween-20, 0.1 mg/ml gelatine, 1000 rpm, OctetRed. (In general: Biolayer interferometry detects binding as a change in optical thickness at a sensor tip.)

One may read the Kd as a measure of binding affinity in units of concentration. A higher Kd goes with a looser complex. As usually defined, the koff is the first-order rate constant of dissociation. A higher koff goes with a short-lived complex. By kon is commonly meant the second-order rate constant of association.

Sequence of eEF1A1 (eukaryotic elongation factor 1 subunit A1), MYC/DDK-tagged (human) (P68104 whole entry): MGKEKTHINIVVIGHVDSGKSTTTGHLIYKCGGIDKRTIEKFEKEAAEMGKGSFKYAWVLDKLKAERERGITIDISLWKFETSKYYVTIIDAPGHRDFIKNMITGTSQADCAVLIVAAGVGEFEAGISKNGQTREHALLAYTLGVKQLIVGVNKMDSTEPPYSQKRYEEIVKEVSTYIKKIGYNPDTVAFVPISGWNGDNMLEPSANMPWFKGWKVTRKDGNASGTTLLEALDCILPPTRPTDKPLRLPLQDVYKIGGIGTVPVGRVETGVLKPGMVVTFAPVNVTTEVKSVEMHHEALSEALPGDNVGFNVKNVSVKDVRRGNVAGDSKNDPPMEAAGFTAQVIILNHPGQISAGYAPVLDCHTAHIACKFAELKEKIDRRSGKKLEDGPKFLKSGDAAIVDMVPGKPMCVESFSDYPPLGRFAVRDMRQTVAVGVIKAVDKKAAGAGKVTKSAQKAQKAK

Take “HIV-1 RT p66/p51 heterodimer, purified (from UniProt P04585 588-1147; P04585 588-1027) (complex)”: the dissociation constant Kd is 3.75 nM, the koff was determined as 0.000207 s⁻¹ and the kon stood at 55200 M⁻¹ s⁻¹.

“HIV-1 RT p51, 6xHis-tagged, purified (from UniProt P04585 588-1027) (natural protein; other documents disagree on this pair)” came in with an equilibrium dissociation constant (Kd) of 4.13 nM, a koff of 0.000185 s⁻¹ and a kon of 44800 M⁻¹ s⁻¹.

Source of the values: paper PMC4666417.
